± gives the standard error.
Assay: background-corrected fluorescence of 3'-dye-labeled ssDNA relative to brightest sequence (3'-GCGCG) (fraction); higher = brighter dye fluorescence (less quenching)
Summary of the method: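 By light-directed phosphoramidite synthesis, single-stranded DNA ending in a 3' Cy3 or Cy5 dye beside each of 1024 permuted pentamers was built on glass slides. Scanning at 532 or 635 nm took place before and after overnight ethylenediamine/ethanol deprotection. Data are means of 10 features per array over at least 3 syntheses. Fluorescence is corrected for unlabeled-oligo background and scaled to the brightest sequence.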

Sequence: TTTTTTCAGCAGCATGAGCATTTTTTTTTTTTTTTGTTCT [TCTTG]
- background-corrected fluorescence (dye: Cy3 (3' terminal)): 0.459 ± 0.012
- background-corrected fluorescence (dye: Cy5 (3' terminal)): 0.367 ± 0.027

Sequence: TTTTTTCAGCAGCATGATCATTTTTTTTTTTTTTTGTTCG [GCTTG]
- background-corrected fluorescence (dye: Cy3 (3' terminal)): 0.551 ± 0.0098
- background-corrected fluorescence (dye: Cy5 (3' terminal)): 0.371 ± 0.032

Sequence: TTTTTTCAGCAGCATGATGATTTTTTTTTTTTTTTGTTCC [CCTTG]
- background-corrected fluorescence (dye: Cy3 (3' terminal)): 0.351 ± 0.018
- background-corrected fluorescence (dye: Cy5 (3' terminal)): 0.275 ± 0.015

Sequence: TTTTTTCAGCAGCATGATGCTTTTTTTTTTTTTTTGTTCA [ACTTG]
- background-corrected fluorescence (dye: Cy3 (3' terminal)): 0.492 ± 0.025
- background-corrected fluorescence (dye: Cy5 (3' terminal)): 0.389 ± 0.044

Sequence: TTTTTTCAGCAGCATGCGCATTTTTTTTTTTTTTTGTTAT [TATTG]
- background-corrected fluorescence (dye: Cy3 (3' terminal)): 0.546 ± 0.048
- background-corrected fluorescence (dye: Cy5 (3' terminal)): 0.389 ± 0.017

Sequence: TTTTTTCAGCAGCATGCTCATTTTTTTTTTTTTTTGTTAG [GATTG]
- background-corrected fluorescence (dye: Cy3 (3' terminal)): 0.541 ± 0.019
- background-corrected fluorescence (dye: Cy5 (3' terminal)): 0.438 ± 0.067

Sequence: TTTTTTCAGCAGCATGCTGATTTTTTTTTTTTTTTGTTAC [CATTG]
- background-corrected fluorescence (dye: Cy3 (3' terminal)): 0.447 ± 0.024
- background-corrected fluorescence (dye: Cy5 (3' terminal)): 0.338 ± 0.055

Sequence: TTTTTTCAGCAGCATGCTGCTTTTTTTTTTTTTTTGTTAA [AATTG]
- background-corrected fluorescence (dye: Cy3 (3' terminal)): 0.57 ± 0.032
- background-corrected fluorescence (dye: Cy5 (3' terminal)): 0.446 ± 0.027

Sequence: TTTTTTCAGCATCAGCAGCATTTTTTTTTTTTTTTGTGTT
- background-corrected fluorescence (dye: Cy3 (3' terminal)): 0.565 ± 0.028
- background-corrected fluorescence (dye: Cy5 (3' terminal)): 0.435 ± 0.082

Sequence: TTTTTTCAGCATCAGCATCATTTTTTTTTTTTTTTGTGTG
- background-corrected fluorescence (dye: Cy3 (3' terminal)): 0.604 ± 0.017
- background-corrected fluorescence (dye: Cy5 (3' terminal)): 0.43 ± 0.03

Sequence: TTTTTTCAGCATCAGCATGATTTTTTTTTTTTTTTGTGTC [CTGTG]
- background-corrected fluorescence (dye: Cy3 (3' terminal)): 0.4591 ± 0.0035
- background-corrected fluorescence (dye: Cy5 (3' terminal)): 0.356 ± 0.068

Sequence: TTTTTTCAGCATCAGCATGCTTTTTTTTTTTTTTTGTGTA [ATGTG]
- background-corrected fluorescence (dye: Cy3 (3' terminal)): 0.595 ± 0.019
- background-corrected fluorescence (dye: Cy5 (3' terminal)): 0.434 ± 0.027

Sequence: TTTTTTCAGCATCATCAGCATTTTTTTTTTTTTTTGTGGT [TGGTG]
- background-corrected fluorescence (dye: Cy3 (3' terminal)): 0.659 ± 0.02
- background-corrected fluorescence (dye: Cy5 (3' terminal)): 0.544 ± 0.031

Sequence: TTTTTTCAGCATCATCATCATTTTTTTTTTTTTTTGTGGG [GGGTG]
- background-corrected fluorescence (dye: Cy3 (3' terminal)): 0.717 ± 0.024
- background-corrected fluorescence (dye: Cy5 (3' terminal)): 0.586 ± 0.041

Sequence: TTTTTTCAGCATCATCATGATTTTTTTTTTTTTTTGTGGC [CGGTG]
- background-corrected fluorescence (dye: Cy3 (3' terminal)): 0.572 ± 0.011
- background-corrected fluorescence (dye: Cy5 (3' terminal)): 0.439 ± 0.041

Sequence: TTTTTTCAGCATCATCATGCTTTTTTTTTTTTTTTGTGGA [AGGTG]
- background-corrected fluorescence (dye: Cy3 (3' terminal)): 0.702 ± 0.022
- background-corrected fluorescence (dye: Cy5 (3' terminal)): 0.606 ± 0.037

Sequence: TTTTTTCAGCATCATGAGCATTTTTTTTTTTTTTTGTGCT [TCGTG]
- background-corrected fluorescence (dye: Cy3 (3' terminal)): 0.504 ± 0.024
- background-corrected fluorescence (dye: Cy5 (3' terminal)): 0.414 ± 0.05

Source: the supplement of paper PMC9428881
